Measurements from patent US20120316071A1 (published 2012).
Changes are numbered by the printed parent chain. Names may count otherwise.

Experiments:
[1] = target: T1, rHuman P-Cadherin/Fc Chimera (human, UniProt P22223 108-654); test: ECL Multispot (MSD) assay, antigens spotted on plate, 10 nM Fab; blank of this well 184
T1 construct: Bought from R&D Systems; not shown: Fc part of a bought chimera

rHuman EGF R/Fc Chimera [2] = target: T2, rHuman EGF R/Fc Chimera (human, UniProt P00533 25-645); test: as above
T2 construct: Bought from R&D Systems; not shown: Fc part of a bought chimera

[3] = target: T3, rHuman IGF-1 sR (insulin-like growth factor-1 soluble receptor) (human, UniProt P08069 31-932); test: as above
T3 construct: Bought soluble receptor

rHuman ErbB2/Fc Chimera [4] = target: T4, rHuman ErbB2/Fc Chimera (human, UniProt P04626 23-652); test: as above
T4 construct: Bought from R&D Systems; not shown: Fc part of a bought chimera

[5] = target: T5, Recombinant Human DLL4 (delta-like protein 4) (human, UniProt Q9NR61 27-524); test: as above
T5 construct: Bought recombinant protein; also called rHuman DLL4

[6] = target: T6, rHuman HGF R/c-MET/Fc Chimera (human, UniProt P08581 25-932); test: as above
T6 construct: Bought from R&D Systems; also called HGF R/Fc; not shown: Fc part of a bought chimera
T6 sequence (P08581 25-932, change not shown): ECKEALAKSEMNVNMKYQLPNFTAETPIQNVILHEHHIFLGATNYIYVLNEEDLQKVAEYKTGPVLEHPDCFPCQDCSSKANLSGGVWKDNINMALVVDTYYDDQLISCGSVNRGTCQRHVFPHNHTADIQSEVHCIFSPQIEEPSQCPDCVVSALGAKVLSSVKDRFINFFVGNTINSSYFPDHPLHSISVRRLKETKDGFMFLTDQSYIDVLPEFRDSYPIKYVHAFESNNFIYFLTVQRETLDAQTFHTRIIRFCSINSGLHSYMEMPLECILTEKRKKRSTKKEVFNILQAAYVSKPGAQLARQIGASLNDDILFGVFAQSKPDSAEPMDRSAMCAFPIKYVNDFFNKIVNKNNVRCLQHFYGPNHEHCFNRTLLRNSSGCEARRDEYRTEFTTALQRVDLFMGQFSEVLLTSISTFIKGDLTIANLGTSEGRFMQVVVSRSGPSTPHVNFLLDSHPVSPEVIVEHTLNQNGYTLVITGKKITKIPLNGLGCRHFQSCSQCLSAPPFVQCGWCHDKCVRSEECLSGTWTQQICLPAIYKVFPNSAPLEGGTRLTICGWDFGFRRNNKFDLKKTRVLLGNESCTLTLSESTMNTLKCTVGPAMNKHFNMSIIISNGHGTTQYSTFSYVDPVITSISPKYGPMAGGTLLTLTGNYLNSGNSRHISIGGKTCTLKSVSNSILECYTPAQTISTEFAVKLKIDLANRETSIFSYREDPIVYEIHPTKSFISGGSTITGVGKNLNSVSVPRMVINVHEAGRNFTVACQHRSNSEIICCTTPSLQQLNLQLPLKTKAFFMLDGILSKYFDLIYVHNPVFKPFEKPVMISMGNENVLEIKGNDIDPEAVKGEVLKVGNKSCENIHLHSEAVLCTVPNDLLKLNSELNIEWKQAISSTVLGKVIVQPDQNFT

[7] = target: T1, rHuman P-Cadherin/Fc Chimera; test: ECL Multispot (MSD) assay, antigens spotted on plate, 10 nM Fab; blank of this well 254
rHuman EGF R/Fc Chimera [8] = target: T2, rHuman EGF R/Fc Chimera; test: as above
[9] = target: T3, rHuman IGF-1 sR (insulin-like growth …); test: as above
rHuman ErbB2/Fc Chimera [10] = target: T4, rHuman ErbB2/Fc Chimera; test: as above
[11] = target: T5, Recombinant Human DLL4 (delta-like …); test: as above
[12] = target: T6, rHuman HGF R/c-MET/Fc Chimera; test: as above
Recombinant Human DLL4 [13] = target: T7, Recombinant Human DLL4 (human, UniProt Q9NR61 27-524); test: ECL (MSD) multispot binding assay, DLL4 signal over blank spot
T7 construct: also called delta-like protein 4; rHuman DLL4

Recombinant Human DLL4 [14] = target: T7, Recombinant Human DLL4; test: ECL (MSD) multispot binding assay, DLL4 spotted on plate, Fab in solution
[15] = target: T8, rHuman ErbB2/Fc Chimera, CF (R&D Systems Cat#1129-ER) (human, UniProt P04626 23-652); test: ECL multispot (MSD), antigen spotted; blank spot of this well 271
T8 construct: Bought protein; also called human epidermal growth factor 2 receptor

[16] = target: T9, rHuman EGF R/Fc Chimera, CF (R&D Systems Cat#344-ER) (human, UniProt P00533 25-645); test: as above
T9 construct: Bought protein; also called epidermal growth factor receptor

[17] = target: T10, rHuman CD44/Fc Chimera, CF (R&D Systems Cat#3660-CD) (human, UniProt P16070 21-220); test: as above
T10 construct: Bought protein

[18] = target: T11, rHuman P-Cadherin/Fc Chimera, CF (R&D Systems Cat#861-PC) (human, UniProt P22223 108-654); test: as above
T11 construct: Bought protein

[19] = target: T12, rHuman Erythropoietin R/Fc Chimera, CF (R&D Systems Cat#963-ER) (human, UniProt P19235 25-250); test: as above
T12 construct: Bought protein; also called EPO R; EPO R/Fc
T12 sequence (looked up): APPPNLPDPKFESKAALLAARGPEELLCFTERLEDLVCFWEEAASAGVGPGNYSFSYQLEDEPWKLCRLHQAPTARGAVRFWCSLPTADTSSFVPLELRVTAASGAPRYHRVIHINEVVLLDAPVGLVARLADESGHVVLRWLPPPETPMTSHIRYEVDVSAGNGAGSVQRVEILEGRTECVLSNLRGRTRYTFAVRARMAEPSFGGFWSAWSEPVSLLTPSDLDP

[20] = target: T13, rHuman IGF-1 sR, CF (R&D Systems Cat#391-GR) (human, UniProt P08069 31-932); test: as above
T13 construct: Bought soluble receptor; also called insulin-like growth factor-1 soluble receptor

[21] = target: T14, rHuman Notch-1/Fc Chimera, CF (R&D Systems Cat#3647-TK) (human, UniProt P46531 19-526); test: as above
T14 construct: Bought protein

[22] = target: T15, Recombinant Human DLL4 (R&D Systems Cat#1506-D4/CF) (human, UniProt Q9NR61 27-524); test: as above
T15 construct: Bought recombinant protein; also called delta-like protein 4; rHuman DLL4

[23] = target: T16, rHuman HGF R/c-MET/Fc Chimera, CF (R&D Systems Cat#358-MT/CF) (human, UniProt P08581 25-932); test: as above
T16 construct: Bought protein; also called HGF R/Fc; hepatocyte growth factor receptor
T16 sequence (P08581 25-932, change not shown): as the sequence (P08581 25-932, change not shown) above

[24] = target: T8, rHuman ErbB2/Fc Chimera, CF (R&D …); test: ECL multispot (MSD), antigen spotted; blank spot of this well 209
[25] = target: T9, rHuman EGF R/Fc Chimera, CF (R&D …); test: as above
[26] = target: T10, rHuman CD44/Fc Chimera, CF (R&D Systems …); test: as above
[27] = target: T11, rHuman P-Cadherin/Fc Chimera, CF (R&D …); test: as above
[28] = target: T12, rHuman Erythropoietin R/Fc Chimera, CF …; test: as above
[29] = target: T13, rHuman IGF-1 sR, CF (R&D Systems …); test: as above
[30] = target: T14, rHuman Notch-1/Fc Chimera, CF (R&D …); test: as above
[31] = target: T16, rHuman HGF R/c-MET/Fc Chimera, CF (R&D …); test: as above
[32] = target: T8, rHuman ErbB2/Fc Chimera, CF (R&D …); test: ECL multispot (MSD), antigen spotted; blank spot of this well 273
[33] = target: T9, rHuman EGF R/Fc Chimera, CF (R&D …); test: as above
[34] = target: T10, rHuman CD44/Fc Chimera, CF (R&D Systems …); test: as above
[35] = target: T11, rHuman P-Cadherin/Fc Chimera, CF (R&D …); test: as above
[36] = target: T12, rHuman Erythropoietin R/Fc Chimera, CF …; test: as above
[37] = target: T13, rHuman IGF-1 sR, CF (R&D Systems …); test: as above
[38] = target: T14, rHuman Notch-1/Fc Chimera, CF (R&D …); test: as above
[39] = target: T16, rHuman HGF R/c-MET/Fc Chimera, CF (R&D …); test: as above

B1: Fab VH1-46_IGHD6-6*01_IGHJ1*01 S102A/S103P/S104F/H111F & L6_IGKJ1*01 (Fab, V domains shown)
VH: QVQLVQSGAEVKKPGASVKVSCKASGYTFTSYYMHWVRQAPGQGLEWMGIINPSGGSTSYAQKFQGRVTMTRDTSTSTVYMELSSLRSEDTAVYYCAREEYAPFSAEYFQFWGQGTLVTVSS
VL: not shown
notes: Fab made in E. coli; VH was cloned into Plasmid A (CH1, His6 and Flag tags) and VL into Plasmid C (kappa constant region); also called APFF; H:APFF & L:wt
ECL signal [1]: 240 | ECL signal (rHuman EGF R/Fc Chimera [2]): 409 | ECL signal [3]: 173 | ECL signal (rHuman ErbB2/Fc Chimera [4]): 322 | ECL signal [5]: 132000 | ECL signal [6]: 263 | ECL signal [7]: 138 | ECL signal (rHuman EGF R/Fc Chimera [8]): 209 | ECL signal [9]: 306 | ECL signal (rHuman ErbB2/Fc Chimera [10]): 351 | ECL signal [11]: 148000 | ECL signal [12]: 176

B2: Fab VH1-46_IGHD6-6*01_IGHJ1*01 S102A/S103P/S104F/H111F (APFF) & L6_IGKJ1*01 S92T (Fab, V domains shown)
VH: B1 VH
VL: EIVLTQSPATLSLSPGERATLSCRASQSVSSYLAWYQQKPGQAPRLLIYDASNRATGIPARFSGSGSGTDFTLTISSLEPEDFAVYYCQQRTNWPPWTFGQGTKVEIKR
notes: Fab from E. coli; VH in Plasmid A (CH1, His6 and Flag tags), VL in Plasmid C (kappa CL); also called APFF & S92T
Signal/Blank (Recombinant Human DLL4 [13]): 194 | ECL signal (Recombinant Human DLL4 [14]): 54100

B3: Fab VH1-46_IGHD6-6*01_IGHJ1*01 S102A/S103P/S104F (APF) & L6_IGKJ1*01 R91P (Fab, V domains shown)
VH: B1 VH with F111H
VL: B2 VL with R91P, T92S
notes: Fab made in E. coli: VH cloned into Plasmid A (CH1, His6 and Flag tags), VL into Plasmid C (kappa CL); also called APF / R91P
ECL signal [15]: 333 | ECL signal [16]: 216 | ECL signal [17]: 252 | ECL signal [18]: 296 | ECL signal [19]: 275 | ECL signal [20]: 199 | ECL signal [21]: 228 | ECL signal [22]: 1280 | ECL signal [23]: 273

B4: Fab VH1-46_IGHD6-6*01_IGHJ1*01 S102A/S103P/S104F (APF) & L6_IGKJ1*01 R91G (Fab, V domains shown)
VH: B1 VH with F111H
VL: B2 VL with R91G, T92S
notes: Fab made in E. coli: VH cloned into Plasmid A (CH1, His6 and Flag tags), VL into Plasmid C (kappa CL); also called APF / R91G
ECL signal [24]: 236 | ECL signal [25]: 271 | ECL signal [26]: 163 | ECL signal [27]: 235 | ECL signal [28]: 306 | ECL signal [29]: 260 | ECL signal [30]: 170 | ECL signal [31]: 239

B5: Fab VH1-46_IGHD6-6*01_IGHJ1*01 S102A/S103P/S104F (APF) & L6_IGKJ1*01 R91L (Fab, V domains shown)
VH: B1 VH with F111H
VL: B2 VL with R91L, T92S
notes: Fab made in E. coli: VH cloned into Plasmid A (CH1, His6 and Flag tags), VL into Plasmid C (kappa CL); also called APF / R91L
ECL signal [32]: 526 | ECL signal [33]: 367 | ECL signal [34]: 236 | ECL signal [35]: 437 | ECL signal [36]: 459 | ECL signal [37]: 382 | ECL signal [38]: 383 | ECL signal [39]: 255
